Data as given in patent publication US20260176352A1 (BIRD ROCK BIO, published 2026).
Substitutions are numbered along the chain they refer to. Names may count otherwise. “And” between values parts separate entries of the source, which are not always exact repeats. Equal entries are not always repeated.

How the values were obtained:
[1] = biological target: T1, native full length human CB1 receptor (cannabinoid 1 receptor) (human, UniProt P21554 1-472); experiment: cell-based or functional assay
[2] = biological target: T1, native full length human CB1 receptor …; experiment: flow cytometry, TRex-CHO full length native human CB1 cells; mean
Method: (§1) After being washed with 200 μL of FACS buffer twice, cells were incubated with secondary antibody for 30 minutes on ice. Cells were washed with 200 μL of FACS buffer twice and transferred to BD Falcon 5 mL tube and analyzed by FACS. Data analysis and measurement of binding affinity (KD) was performed using GraphPad Prism software.

[3] = biological target: T1, native full length human CB1 receptor …; experiment: flow cytometry, TRex-CHO full length native human CB1 cells; Exp 1
Method: as §1

[4] = biological target: T1, native full length human CB1 receptor …; experiment: flow cytometry, TRex-CHO full length native human CB1 cells; Exp 2
Method: as §1

[5] = biological target: T1, native full length human CB1 receptor …; experiment: cell-based or functional assay; remark: listed apart in the source
[6] = biological target: T1, native full length human CB1 receptor …; experiment: flow cytometry, Fab on TRex-CHO human CB1 cells
[7] = biological target: T1, native full length human CB1 receptor …; experiment: flow cytometry on TRex-CHO cells stably transfected with tetracycline inducible CB1, FITC-conjugated anti-human antibody [panel A]
[8] = biological target: T1, native full length human CB1 receptor …; experiment: cell-based or functional assay; remark: listed apart in the source
[9] = biological target: T1, native full length human CB1 receptor …; experiment: cell-based or functional assay; remark: listed apart in the source
[10] = biological target: T2, TRex CHO A56 over-expressed CB1 (CB1 T210A/fusion partner) (UniProt P21554 1-472); experiment: flow cytometry, TRexCHO A56 cells
T2 construct: whole, on cells; The fusion partner stands inside the CB1 chain in place of ICL3, not at its end; also called Trex-CHO CB1 T210A/fusion partner; not shown: fusion partner that replaces ICL3
Method: (§2) After being washed with 200 μl of FACS buffer twice, cells were incubated with PE conjugated anti-human secondary antibody (Southern Biotech) for 30 minutes on ice. Cells were washed with 200 μl of FACS buffer twice and transferred to BD Falcon 5 ml tube and analyzed by flow cytometry (BD FACScalibur).

[11] = biological target: T1, native full length human CB1 receptor …; experiment: flow cytometry, TRexCHO A156 cells
Method: as §2

[12] = biological target: T1, native full length human CB1 receptor …; experiment: flow cytometry, TRex-CHO human CB1 cells; mean ± SD
Method: (§3) TRex CHO parental cells, and TRex-CHO cells stably transfected with tetracycline inducible human CB1, human CB2 or mouse CB1 expression constructs were harvested. […] Cells were then centrifuged at 4° C. at 1600 rpm for 3 minutes; supernatant was aspirated and cells were washed with 200 μL FACS buffer. The washing procedure was repeated twice. After the final wash, cells were re-suspended in FACS buffer containing PE-conjugated anti-human Fc secondary antibody (1:200 dilutions) and incubated at 4° C. for 30 minutes. Cells were washed with 200 μL FACS buffer twice and analyzed by flow cytometry (Guava). Data analysis and measurement of binding affinity (KD) was performed using GraphPad Prism software.

[13] = biological target: T1, native full length human CB1 receptor …; experiment: flow cytometry, TRex-CHO human CB1 cells; mean of batch 1
Method: as §3

[14] = biological target: T1, native full length human CB1 receptor …; experiment: flow cytometry, TRex-CHO human CB1 cells; mean of batch 2
Method: as §3

[15] = biological target: T1, native full length human CB1 receptor …; experiment: flow cytometry, TRex-CHO human CB1 cells; mean of batch 3
Method: as §3

mouse CB1 = biological target: T3, mouse CB1 (mouse, UniProt P47746 1-473); experiment: flow cytometry on TRex-CHO mouse CB1 cells, lower panel
T3 construct: whole, on cells; also called TRexCHO Mouse CB1
T3 sequence (P47746 whole entry): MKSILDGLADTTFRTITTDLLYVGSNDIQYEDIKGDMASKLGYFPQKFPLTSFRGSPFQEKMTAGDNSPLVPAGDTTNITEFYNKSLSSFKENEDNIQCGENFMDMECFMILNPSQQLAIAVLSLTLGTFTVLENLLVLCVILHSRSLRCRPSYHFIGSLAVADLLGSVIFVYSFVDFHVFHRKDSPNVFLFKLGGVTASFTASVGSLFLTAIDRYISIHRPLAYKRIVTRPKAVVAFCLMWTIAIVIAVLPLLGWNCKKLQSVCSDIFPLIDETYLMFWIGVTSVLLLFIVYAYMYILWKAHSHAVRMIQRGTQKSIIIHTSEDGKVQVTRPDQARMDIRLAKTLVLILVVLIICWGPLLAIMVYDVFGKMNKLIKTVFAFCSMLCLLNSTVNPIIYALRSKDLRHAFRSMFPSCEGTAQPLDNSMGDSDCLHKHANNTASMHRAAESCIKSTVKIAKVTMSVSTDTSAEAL
Method: as §2

human CB2 = biological target: T4, human CB2 (human, UniProt P34972 1-360); experiment: flow cytometry on TRex-CHO human CB2 cells, middle panel
T4 construct: whole, on cells; also called TRexCHO Human CB2
T4 sequence (P34972 whole entry): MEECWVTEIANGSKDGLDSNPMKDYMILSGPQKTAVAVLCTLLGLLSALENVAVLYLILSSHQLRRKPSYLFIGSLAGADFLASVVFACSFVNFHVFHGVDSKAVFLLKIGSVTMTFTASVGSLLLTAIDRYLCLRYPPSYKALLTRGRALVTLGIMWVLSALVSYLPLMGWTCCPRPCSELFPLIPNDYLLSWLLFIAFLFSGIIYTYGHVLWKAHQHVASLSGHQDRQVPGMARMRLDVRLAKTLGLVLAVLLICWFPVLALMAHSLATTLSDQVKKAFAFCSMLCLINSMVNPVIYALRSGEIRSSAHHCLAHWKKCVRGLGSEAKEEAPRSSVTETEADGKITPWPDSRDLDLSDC
Method: as §2

[16] = biological target: T1, native full length human CB1 receptor …; experiment: flow cytometry on TRex-CHO cells with tetracycline inducible human CB1
Method: as §3

[17] = biological target: T1, native full length human CB1 receptor …; experiment: cell-based or functional assay; remark: listed apart in the source

B1: RY-HL-LC-A12 FACS4 (IgG4 S228P) (antibody, V domains shown)
VH: QVQLVQSGAEVKKPGSSVKVSCKASGYEFSYYWMNWVRQAPGQGLEWMGQIYPGDGETKYAQKFQGRVTITADKSTSTAYMELSSLRSEDTAVYYCARSHGNYLPYWGQGTLVTVSS
VL: EIVLTQSPATLSLSPGERATLSCRASQSVSSRYLHWYQQKPGQAPRLLIYGTSNLASGIPARFSGSGSGTDFTLTISRLEPEDFAVYYCHQYSRSPPTFGQGTKVEIKR
For B1, the “Exp 1 IC50 (nM), cAMP antagonist assay” value [1] was 48 nM, the “Exp 2 IC50 (nM), cAMP antagonist assay” value [1] was 33.9 nM and the “Exp 3 IC50 (nM), cAMP antagonist assay” value [1] was 42.4 nM. The Kd [2] was 10.3 nM, the Kd [3] was 11.5 nM and the Kd [4] was 9.19 nM.

B2: P1C4-h2 Fab (Fab, V domains shown)
VH: B1 VH
VL: EIVLTQSPATLSLSPGERATLSCRASQSVSSSYLHWYQQKPGQAPRLLIYSTSNLASGIPARFSGSGSGTDFTLTISRLEPEDFAVYYCHQYHRSPPTFGQGTKVEIK
notes: Fab; constant parts not described; also called humanized P1C4 Fab h2
In the case of B2, the “IC50 cAMP assay” value [5] is reported as 52 nM, the Kd [6] is reported as 14 nM and the “EC50 (read off the curve)” value [7] is reported as 10 to 20 nM.

B3: P1C4-h0-IgG1 (antibody, V domains shown)
VH: B1 VH with Y27G, E28T
VL: B1 VL with R32S, G51S, S93H
notes: also called P1C4-H0 No mutation; PA12R3-P1C4 HO (no back mutation)
With B3 the “IC50 (nM), cAMP assay” value [8] was 146 nM, the “cAMP IC50 (nM) Mean of Batch 1 [n]” value [9] was 158 nM and the “cAMP IC50 (nM) Mean of Batch 2 [n]” value [9] was 343 nM. It also gave a Kd [10] of 4.5 nM, a Kd [11] of 25 nM and a Kd [12] of 24 nM. The Kd [13] was 23 nM, the Kd [14] was 24 nM and the Kd [15] was 24 nM. For the same binder, the binding result (mouse CB1) was “no binding (tested: about 300 nM (last point))”, the binding result (human CB2) was “no binding (tested: about 300 nM (last point))” and the “EC50 (read off the curve)” value [16] was ~10 nM and ~20 nM.

B4: P1C4-h4 Fab (Fab, V domains shown)
VH: B1 VH with A61N, Q62G
VL: B2 VL
notes: Fab; constant parts not described; also called humanized P1C4 Fab h4
B4 was tested, and the “IC50 cAMP assay” value [5] was 43 nM, the “IC50 (read off the curve), cAMP assay [panel B]” value [17] was ~40 nM and the Kd [6] was 16.2 nM. The “EC50 (read off the curve)” value [7] was ~20 nM.

B5: RY-HL-LC-C12 FACS4 (IgG4 S228P) (antibody, V domains shown)
VH: B1 VH
VL: B1 VL with G51S, N54R, S93H
With B5 the “Exp 1 IC50 (nM), cAMP antagonist assay” value [1] was 76.8 nM, the “Exp 2 IC50 (nM), cAMP antagonist assay” value [1] was 52.5 nM and the “Exp 3 IC50 (nM), cAMP antagonist assay” value [1] was 43.1 nM. For the same binder, the Kd [2] was 14.1 nM, the Kd [3] was 14.4 nM and the Kd [4] was 13.9 nM.

B6: RY-LC-B12 FACS3 (IgG4 S228P) (antibody, V domains shown)
VH: B1 VH
VL: B1 VL with G51S, N54R, H90Q, S93H
B6 was tested, and the “Exp 1 IC50 (nM), cAMP antagonist assay” value [1] was 40.9 nM, the “Exp 2 IC50 (nM), cAMP antagonist assay” value [1] was 32.9 nM and the “Exp 3 IC50 (nM), cAMP antagonist assay” value [1] was 39.7 nM. For the same binder, the Kd [2] was 8.82 nM, the Kd [3] was 8.75 nM and the Kd [4] was 8.89 nM.
